Laboratory results reported in publication PMC3858276.

Biological target: both RasaN and SLP-76
Test: supernatant depletion assay (pull-down titration); biotinylated SH2 domains on streptavidin-coated DynaBeads, washed once and serially diluted in 1x PBS; ADAP at 8 nM (PBS with 0.1% E. coli extract), 10 min at RT; unbound ADAP in the supernatant read by in-gel fluorescence; Kd estimated from the plot

B1: phosphorylated SNAP-ADAP fusion protein (ADAP amino acids 570-690) (domain or fragment)
chain: DYDSLKLKKDSLGAPSRPIEDDQEVYDDVAEQDDISSHSQSGSGGIFPPPPDDDIYDGIEEEDADDGFPAPPKQLDMGDEVYDDVDTSDFPVSSAEMSQGTNVGKAKTEEKDLKKLKKQEK
modifications: phosphotyrosine (in vitro phosphorylation by Fyn kinase, approx. 90% of each phosphorylation site; sites in Table S1); BG-647 dye on the SNAP-tag
Kd: 60 to 90 nM
